Columns and labels:
[1] = target: T1, human Crtac1A (human, UniProt Q9NQ79 28-661); test: immunoprecipitation from human CSF and serum, then immunoblotting (Wes)
T1 construct: Recombinant protein (IB control sample) or native protein in human CSF and serum; also called rCrtac1A
T1 sequence: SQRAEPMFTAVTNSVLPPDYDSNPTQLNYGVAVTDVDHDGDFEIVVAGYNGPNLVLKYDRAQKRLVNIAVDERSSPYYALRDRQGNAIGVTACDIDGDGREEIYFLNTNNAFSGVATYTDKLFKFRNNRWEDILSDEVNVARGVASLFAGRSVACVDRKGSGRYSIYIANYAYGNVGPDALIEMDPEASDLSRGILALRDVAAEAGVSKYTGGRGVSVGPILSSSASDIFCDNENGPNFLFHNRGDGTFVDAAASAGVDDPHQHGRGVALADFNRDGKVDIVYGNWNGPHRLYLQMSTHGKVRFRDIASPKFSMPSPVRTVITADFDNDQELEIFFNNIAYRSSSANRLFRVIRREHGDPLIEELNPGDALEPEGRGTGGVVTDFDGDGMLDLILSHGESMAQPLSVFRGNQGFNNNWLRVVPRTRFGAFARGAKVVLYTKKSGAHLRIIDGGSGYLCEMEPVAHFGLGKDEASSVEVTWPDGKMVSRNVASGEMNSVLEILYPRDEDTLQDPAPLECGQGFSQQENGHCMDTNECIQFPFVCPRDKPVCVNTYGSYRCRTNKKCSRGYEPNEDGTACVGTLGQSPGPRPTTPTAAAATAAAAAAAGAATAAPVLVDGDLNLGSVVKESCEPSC
Protocol: For human CSF and human serum, immunoprecipitation using a monoclonal antibody purified from the culture supernatant of hybridomas of clones 1B4 and 15C2 was performed, and IB analysis by Wes was performed. For comparison, immunoprecipitation (IP) using an anti-hCrtac1 antibody (RD) and IB analysis using an anti-rat LOTUS antibody (ITM, 45-12C) were performed.
As a sample, CSF (300 μL) and serum (500 μL) were used per antibody. Each sample and protein G sepharose were mixed and rotated at 4° C. for 1 hour to remove contaminants that non-specifically bind to protein G from each sample in advance. Protein G solid phase-treated magnetic particles (60 μL, Veritas, Dynabeads (registered trademark) Protein G) were dispensed into 1.5-mL tubes, and washed twice with dilution buffer III (500 μL, 0.02% Tween (registered trademark) 20/PBS (pH 7.4)). Magnetic collection was performed to remove the supernatant, and each antibody (24 μg) and the above dilution buffer III (200 μL) were added to the magnetic particles. The tube was stirred at room temperature for 1 hour, and then collected to remove the supernatant. The magnetic particles were washed five times with the above dilution buffer III (300 μL), and then collected to remove supernatant. Each sample from which impurities were removed was added to the magnetic particles, and the tube was stirred at room temperature for 5 hours. […]

[2] = target: T2, recombinant Crtac1B fragment #7 (negative control) (human, UniProt Q9NQ79 28-606); test: antigen immobilized ELISA, hybridoma culture supernatant, color development at 655 nm same as plate without antigen
T2 construct: also called fCrtac1B (1-606)
T2 sequence: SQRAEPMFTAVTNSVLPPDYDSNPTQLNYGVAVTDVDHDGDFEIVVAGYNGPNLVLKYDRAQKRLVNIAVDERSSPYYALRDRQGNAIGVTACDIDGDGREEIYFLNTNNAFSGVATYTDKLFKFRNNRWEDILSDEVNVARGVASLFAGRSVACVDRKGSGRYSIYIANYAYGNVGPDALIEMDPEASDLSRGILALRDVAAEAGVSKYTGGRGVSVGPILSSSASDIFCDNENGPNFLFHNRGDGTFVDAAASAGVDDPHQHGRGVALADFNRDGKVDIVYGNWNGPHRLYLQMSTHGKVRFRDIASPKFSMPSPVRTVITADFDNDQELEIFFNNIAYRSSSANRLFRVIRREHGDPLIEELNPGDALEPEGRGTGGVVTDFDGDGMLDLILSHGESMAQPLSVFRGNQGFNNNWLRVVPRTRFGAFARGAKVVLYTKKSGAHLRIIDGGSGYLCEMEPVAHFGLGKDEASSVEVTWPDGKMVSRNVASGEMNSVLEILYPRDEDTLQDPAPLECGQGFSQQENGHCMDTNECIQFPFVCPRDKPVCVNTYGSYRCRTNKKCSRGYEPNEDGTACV
Protocol: (§1) A positive antigen (50 μL) and a negative control (50 μL) were added to each well of a 96 well plate, respectively. Then, the plate was incubated at 4° C. overnight, and the positive antigen and the negative control were immobilized in the well to obtain an antigen immobilized plate. Each well was washed twice with a washing solution (250 μL, 0.05% Tween (registered trademark) 20/20 mM potassium phosphate buffer (pH 7.4), 150 mM NaCl). To each well was added a blocking buffer (250 μL, 5% skim milk/20 mM potassium phosphate buffer (pH 7.4), 150 mM NaCl), and blocked at room temperature for 90 minutes. Culture supernatant (50 μL) of each hybridoma selected by primary screening was added to each well, and the cells were incubated at 37° C. for 1 hour. Each well was washed three times with a washing solution (250 μL). The HRP-labeled anti-mouse IgG antibody (MBL, product number 330) was diluted 1:1,000 with dilution buffer II (1% skim milk/20 mM potassium phosphate buffer (pH 7.4), 150 mM NaCl). A solution (50 μL) of this labeled antibody was added to each well, and the well was incubated at 37° C. for 1 hour. Each well was washed five times with a washing solution (250 μL). Chemical chromogenic substrate solutions (Bio-Rad, TMB Peroxidase EIA Substrate Kit) were added to respective wells at 50 μL, and the plate was allowed to stand at room temperature under shading for 30 minutes. The plate was set in a microplate reader (Thermo Fisher Scientific, Varioskan (registered trademark) Flash), and the color development intensity at 655 nm was measured for each well.
(§2) Reactivity of the monoclonal antibody contained in the culture supernatant of the hybridomas of clones 1B4 and 15C2 to the antigen was confirmed by ELISA using the 7 recombinant Crtac1B fragments described above. A specific operation was the same as that of the antigen immobilized ELISA method of Example 1. For comparison, ELISA was performed in the same manner using a 96 well plate in which no antigen was immobilized.
(§3) In addition, as to these monoclonal antibodies, the color development intensity when the recombinant Crtac1B fragments of #6 and #7 were used was substantially the same as that when a plate without immobilizing the antigen was used.

[3] = target: T3, recombinant Crtac1B fragment #6 (human, UniProt Q9NQ79 28-606); test: as above
T3 construct: also called fCrtac1B (1-607)
T3 sequence: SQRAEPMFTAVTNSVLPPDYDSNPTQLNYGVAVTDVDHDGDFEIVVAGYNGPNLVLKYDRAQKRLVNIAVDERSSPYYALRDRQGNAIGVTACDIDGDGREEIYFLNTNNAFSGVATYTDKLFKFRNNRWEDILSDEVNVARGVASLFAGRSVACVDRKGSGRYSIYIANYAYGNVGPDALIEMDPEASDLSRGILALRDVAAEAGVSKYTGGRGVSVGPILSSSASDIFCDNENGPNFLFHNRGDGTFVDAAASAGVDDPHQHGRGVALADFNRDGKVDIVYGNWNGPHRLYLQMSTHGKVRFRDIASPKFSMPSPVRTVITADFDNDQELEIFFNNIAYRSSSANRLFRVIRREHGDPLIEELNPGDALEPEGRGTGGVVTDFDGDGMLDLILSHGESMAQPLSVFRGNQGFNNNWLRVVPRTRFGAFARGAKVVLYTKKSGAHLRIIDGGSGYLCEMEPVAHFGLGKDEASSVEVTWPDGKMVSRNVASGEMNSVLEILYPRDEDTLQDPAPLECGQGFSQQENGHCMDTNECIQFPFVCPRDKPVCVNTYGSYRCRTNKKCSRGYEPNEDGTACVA
Protocol: as §1, §2, §3

binding result [1]: no binding
binding result [2]: no binding
binding result [3]: no binding
B1: monoclonal antibody derived from the hybridoma of clone 1B4 (antibody, mouse IgG1, kappa, V domains shown)
VH: EVQLQQFGAELVKPGASVKISCKASGYTFTDYNMDWVKQSHGKSLEWIGDINPNYDSSSYNQKFKGKATLTVDKSSSTAYMELRSLTSEDTAVYYCTRSGGTYWGQGTLVTVSA
VL: DIQMNQSPSSLSASLGDTITITCHASQNINVWLSWYQQKPGNIPKLLIYKASNLHTGVPSRFSGSGSGTGFSLTISSLQPEDIATYYCQQAQSYPRTFGGGTKLEIKR
notes: It is kept apart because the two clones were tested separately; Mouse IgG1; Leader ranges were derived as for m1
